Test results as given in patent publication US9259432B1, “Composition and methods for targeted delivery of a therapeutic compound to the brain or spinal cord of a subject for treatment of neurodegenerative diseases” (Parminder J. S. Vig, priority 2011, dated 2016).

How the values were obtained:
[1] = biological target: T1, S100B (Homo sapiens, UniProt P04271); test: Thermal pull-down assay of ELP polypeptide with S100B; type: binding; settings: 60 μM polypeptide, western blot with S100B antibody
T1 construct: purchased Sigma-Aldrich
T1 sequence (P04271 2-92 limits assumed): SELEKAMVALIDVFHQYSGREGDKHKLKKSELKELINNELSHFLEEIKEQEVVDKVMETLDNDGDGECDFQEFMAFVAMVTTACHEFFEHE
Procedure: FIG. 9 is a blot showing that CPP-ELP-TRTK12 interacts with S100B protein in vitro. Solutions containing 60 μM Synb1-ELP-TRTK12 or Synb1-ELP were mixed with or without 1 μM S100B in PBS for 30 min at 37° C. The solutions were then incubated in a hot water bath maintained at 50° C. for 5 minutes to induce SynB1-ELP-TRTK12 aggregation. After heating, the solutions were centrifugated at 14,000 rpm to recover the ELP polypeptide aggregates (pellets). The ELP polypeptide pellets were washed 3 times with PBS and reheated and pelleted between washes. To assess ELP polypeptide-S100B interactions, the remaining ELP pellets were subjected to western blotting using a S100B antibody.
Shown are the turbidity assay results of various concentrations of (b) Synb1-ELP-GGC and (c) Synb1-ELP-TRTK heated from 25° C. to 75° C. […] (d) Shown is the thermal pull-down assay procedure, where a solution containing S100B and Synb1-ELP-TRTK protein are allowed to interact at 37° C. in a microcentrifuge tube. […] Once the supernatant is removed the protein pellet can be analyzed by western blotting techniques to reveal protein-protein interactions. […] Solutions containing 60 μM Synb1-ELP-TRTK or Synb1-ELP-GGC (control peptide) were mixed with or without 1 μM S100B and subjected to thermal pull-down assay procedure and analyzed by western blotting using an S100B antibody. […]

[2] = system: differentiated GFP-ATXN1[82Q] SHSY5Y cells; test: Oxyblot of S100B induced oxidized proteins; type: cell-based; settings: 50 μM pretreatment 1 hr, then 5 μM S100B 2 hrs; oxidized protein/β-tubulin
Procedure: FIG. 16: (a) GFP-ATXN1[82Q] and (b) GFP-ATXN1[30Q] SHSY5Y stable cells were placed on 12-well plates and subjected to treatment with 25 nM TPA for 3 days to produce differentiated SHSY5Y cell lines. Next, the cells were pretreated with 50 μM Synb1-ELP-TRTK for 1 hr then treated with 5 μM S100B for 2 hrs or treated with 150 μM H2O2 for 2 hrs, where control cells were treated with serum free media for 3 hrs. Then the cells were lysed and analyzed with the Oxyblot kit and a β-tubulin antibody. Shown is the resulting oxyblot/western blot data. (c) Optical densities of the protein bands were taken using ImageJ software. Graphs shown the ratio of oxidized protein/β-tubulin protein normalized to the control. Statistics were taken using the student's t-test. * GFP-ATXN1[82Q]: S100B vs Synb1-ELP-TRTK+S100B, P<0.05. ψ GFP-ATXN1[82Q]: H2O2 vs GFP-ATXN1[30Q]: H2O2, P<0.05.
GFP-ATXN1[82Q] or GFP-ATXN1[30Q] stable cells were placed on 12-well plates at a concentration of 60,000 cells per well. Cells were treated with 25 nM TPA for 3 days to produce differentiated SHSY5Y cell lines. […] Cell lysates were analyzed with the Oxyblot kit according to manufacturer's protocol ([…]) and with a β-tubulin antibody (Sigma), where 5 μgs of protein was loaded in each well of 4-20% acrylamide gel (Bio-Rad Laboratories, Hercules, Calif., USA). […]

Synb1-ELP-TRTK: thermally responsive S100B inhibitory polypeptide: Synb1 cell penetrating peptide, elastin-like polypeptide (ELP) and TRTK12 peptide fused
interaction with S100B dimer and monomer (FIG. 9) ([1]; 1 μM S100B in PBS, aggregation at 50° C.): strong interaction | interaction with S100B (FIG. 11E) ([1]; 1 μM S100B, thermal cycling at 42° C.): bound both S100B monomers and dimers | S100B's impact on the level of oxidized proteins [2]: significantly blocked
